Source: IntAct's records for PubMed 15483055

Molecular target: pakc_dicdi pakC (UniProt Q55GV3)
Sequence (Q55GV3 whole entry): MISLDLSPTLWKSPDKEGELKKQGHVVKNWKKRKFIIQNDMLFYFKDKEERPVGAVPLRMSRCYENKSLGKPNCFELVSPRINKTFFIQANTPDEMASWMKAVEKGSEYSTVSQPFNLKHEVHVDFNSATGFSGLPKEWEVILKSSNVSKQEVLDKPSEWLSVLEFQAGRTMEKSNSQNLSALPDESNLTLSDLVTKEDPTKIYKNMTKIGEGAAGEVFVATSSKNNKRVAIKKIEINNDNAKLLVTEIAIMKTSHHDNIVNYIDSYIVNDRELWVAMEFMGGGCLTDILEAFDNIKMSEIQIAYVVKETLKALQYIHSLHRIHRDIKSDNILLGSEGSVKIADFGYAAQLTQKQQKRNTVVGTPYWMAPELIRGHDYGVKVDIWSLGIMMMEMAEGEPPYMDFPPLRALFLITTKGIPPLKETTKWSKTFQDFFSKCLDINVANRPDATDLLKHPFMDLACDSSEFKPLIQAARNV

Sequence of Rho-related protein racB (Dictyostelium discoideum (Slime mold)), P34148 T17N (P34148 whole entry T17N): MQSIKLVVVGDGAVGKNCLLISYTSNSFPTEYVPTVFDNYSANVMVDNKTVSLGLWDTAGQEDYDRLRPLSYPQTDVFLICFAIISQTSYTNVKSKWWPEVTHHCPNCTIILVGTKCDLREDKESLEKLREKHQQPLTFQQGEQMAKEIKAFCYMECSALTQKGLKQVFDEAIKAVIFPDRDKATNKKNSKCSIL

“Rho-related protein racB (Dictyostelium discoideum (Slime mold)), P34148 T17N” was tested. Which “effect of a mutation on the interaction” value did it give?
Its value is “decreasing interaction”.
